Measured values: patent publication US11938195B2, “Upconversion nanoparticle peptide conjugates” (BP InnoMed Limited, priority 2021, dated 2024)
Where a SMILES comes first, the peptide text is derived from it. Where no end group is shown, it is not given here. [ ]: non-standard residue; d: D form. Ahx = NCCCCCC(=O)O

Assays:
p65 [1] = test: Western blot of p65 (NF-κB) in LCL3 cells; type: cell-based
Text: (§1) NF-κB signaling pathway is critical for the survival of EBV-infected tumor cells. Here we investigated if our nanoprobes could affect this oncogenic pathway. EBV-positive LCL3 and C666 cells were used as models, EBV-negative HK1 cells were used as control and Western blot was used to analyze the protein expression of p65, a major transcription factor in the NF-κB family. […] GAPDH and Histone are regarded as internal standards in cytosolic and nuclear fractions, respectively. […] This is consistent with the cellular uptake results.
(§2) Western blotting: EBV-positive C666, LCL3 and EBV-negative HK1 cell pellets were treated with phosphatase and protease inhibitors at 0-4° C. for 30 min. The total protein concentrations were calculated by protein absorbance. The protein was resolved by sodium dodecyl sulfate-polyacrylamide gel electrophoresis (SDS-PAGE) and transferred to cellulose filter membranes. The membranes were blocked with 3% BSA in Tris-buffered saline in 0.1% Tween 20 (TBST) for 1 h with gentle shaking and subsequently incubated with primary antibodies (1:1000) in 3% BSA in TBST at 4° C. for overnight. After rinsing with TBST buffer three times, the blots were then incubated with corresponding secondary anti-rabbit antibody (1:6000) for 1 h. After that, the blots were rinsed again with 3% BSA in TBST for 1 h shaking at room temperature. Lastly, the density of bands was determined by image analysis system after washing with TBST buffer three times.

p65 [2] = test: Western blot of p65 (NF-κB) in C666 cells; type: cell-based
Text: as §1, §2

EBV-positive C666 cells [3] = test: MTT cytotoxicity assay, C666 cells; details: 24 h
Description: The inhibitory effects of the novel nanoprobes on both EBV-infected cancer cells and non-EBV-infected cancer cells were investigated by MTT assays to test the cell viability. The cytotoxic assays were performed in EBV-positive C666 and NPC43 cells, LMP1-positive LCL3 and Raji cells, and the LMP1-positive and -negative HK1 cell pair. HK1, MRC-5 and HeLa cell lines are EBV-negative and they serve as negative controls. […] In addition, UCNP-P4, EBNA1-specific peptide coated UCNPs was included as control group, so the ability of inhibiting EBV-related cancer cells can be directly compared with UCNP-Pn [n=5, 6 and 7 (SEQ ID NO: 5, 6, 7)].
In vitro cytotoxic assays: The cytotoxicity of our nanoprobes was determined by MTT reduction assay. The cells (3×10^3 per well) were seeded onto 96-well plates and incubated overnight, followed by treatment with Pn [n=5, 6 and 7 (SEQ ID NO: 5, 6, 7)], UCNP, UCNP-Pn [n=5, 6 and 7 (SEQ ID NO: 5, 6, 7)] and UCNP-P4 individually at 37° C., 5% CO2 for 24 h in dark. The cell monolayers were rinsed with PBS and 50 μL of MTT, 3-(4,5-dimethylthiazol-2-yl)-2,5-diphenyltetrazolium bromide solution (0.5 mg mL^−1) was added per well and the cells were further incubated for 3 h at 37° C. The solution was subsequently discarded, and the formazan crystals were dissolved in 100 μL of DMSO per well under shaking. The absorptions of the formazan crystal solutions at 540 nm and 690 nm were measured using a dual-wavelength Labsystem Multiskan microplate reader (Merck Eurolab).

C666 derived xenografts = test: In vivo suppression assay, C666 xenograft; details: for Effect on average tumor size: 12.5 mg/kg, intravenous (tail vein), twice a week, 33 days; for Body weight: C666 tumor-bearing mice, 33-day experimental period
Text: To determine the antitumor efficacy of the new nanoprobes in vivo, their therapeutic effects were investigated in C666 and HeLa derived xenografts in BALB/c nude mice. The mice were randomly divided into five groups: (1) control (PBS), (2) UCNP, (3) UCNP-P5, (4) UCNP-P6, (5) UCNP-P7. In order to recapitulate the clinical setting of drug delivery, intravenous injection (via a tail vein) was used to deliver these agents to the immunocompromised animal.
In vivo suppression assays: EBV-positive C666 and EBV-negative HeLa cells were suspended in 200 μL of serum-free RMPI 1640 and DMEM respectively. Female BALB/c nude mice (6-8 weeks) which obtained from HKU were then injected with the cells in the right flank. Intravenous injections were performed when the average tumor volumes reached ˜200 mm^3. 0.25 mg/tumor dose of UCNP and UCNP-Pn [n=5, 6 and 7 (SEQ ID NO: 5, 6, 7)] in […] PBS buffer were injected through tail vein of mice using a 24-gauge syringe. Mice injected with the same volume of PBS buffer served as control. The body weight and tumor volumes of the mice were measured three times per week; in which the latter is calculated by (L×W^2)/2, where L and W are the longer and shorter tumor dimensions respectively. Intravenous injection at the tail vein were performed twice a week and the mice were sacrificed after 33-day experimental period; the tumors were extracted and weighed. The treatment groups are unknown to the investigators for the experimental and data analysis processes. The animal experiments conducted were approved by the Department of Health of the HKSAR Government. All animal procedures are within the Guidelines for Care and Use of Laboratory Animals of HKBU and approved by the Animal Ethics Committee of HKBU.
Hematoxylin and eosin (H&E) staining: In general, the transplanted C666 and HeLa derived tumor tissues were collected and fixed with formalin, followed by embedding in paraffin. The histologic sections were then stained with hematoxylin and eosin. Other major organ tissues (heart, liver, spleen, lung, kidney, brain) were conducted in the same procedures.

[4] = Peptide release from nanoprobes under various pH buffers (UV-vis absorbance); type: physicochemical; details: 24 h in buffer, 0.5 mg/mL
Text: The stability and capability of cleavage of the pH linker were also studied. […] More importantly, TEM images of UCNP-P5 at different pH buffers were observed and investigated in FIG. 1, providing direct evidence on pH-responsive peptide release from UCNP. […]

[5] = Peptide release from nanoprobes under various time intervals (UV-vis absorbance); type: physicochemical; details: 0.5 mg/mL
Text: The stability and capability of cleavage of the pH linker were also studied. […] More importantly, TEM images of UCNP-P5 at different pH buffers were observed and investigated in FIG. 1, providing direct evidence on pH-responsive peptide release from UCNP.

[6] = target: EBNA1 (DNA-binding domain fragment of a.a.468-607) (Epstein-Barr virus, UniProt P03211); test: EBNA1 dimerization/oligomerization inhibition assay; type: biochemical; details: 0.3 mg/mL nanoprobe, 90 mg EBNA1, DSS crosslinking, SDS gel
Description: EBNA1 dimerization/oligomerization inhibition assays were performed to reveal the ability of interrupting EBNA1 dimerization/oligomerization in the presence of the previous nanoprobe UCNP-P4 and the nanoplatforms in situ.
(conc.: 0.3 mg/mL) at 4° C. overnight. Then, 2 mM disuccinimidyl suberate (DSS) was added to allow the samples to undergo crosslinking reaction at room temperature for 30 min. The samples were run and separated on an SDS-denaturing gel and proteins were detected using Coomassie Blue staining. PBS buffer was used as control group.

EBV-positive C666 cells [7] = test: Two-photon confocal imaging, C666; type: cell-based; details: mainly from the nuclei, 24 h incubation
Description: After the study of cellular uptake, fluorescent confocal microscopy was used to study the sub-cellular localization with the same set of EBV-/LMP1-positive and -negative cell lines. All these cell lines were treated with as-prepared samples for different time intervals of 1 h, 3 h, 6 h, 12 h and 24 h. Fluorescence signals in the cells were imaged under 980 nm excitation.
The cells were then co-stained with 0.05 mM nuclear dye DRAQ5 for 0.5 h for confocal imaging with a Leica SP8 confocal microscope equipped with a coherent femtosecond laser (690-1050 nm), argon laser (432 nm, 457 nm and 488 nm), He—Ne laser (632 nm), UV lamp. A stage-top cell culture chamber was also used to maintain the atmospheric conditions of 2-7% CO2 and a temperature of 37° C.

EBNA1 (DNA-binding domain fragment of a.a.468-607), sequence (P03211 468-607): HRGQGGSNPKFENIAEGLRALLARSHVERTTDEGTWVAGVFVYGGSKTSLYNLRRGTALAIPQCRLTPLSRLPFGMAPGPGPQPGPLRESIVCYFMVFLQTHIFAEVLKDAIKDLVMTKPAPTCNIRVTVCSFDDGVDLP

| Molecule | Cytotoxicity of free peptides (MTT cell viability) (EBV-positive C666 cells [3]) | Peptide release rate ([4]; pH 5.0) [%] | Peptide release rate ([4]; pH 5.5) [%] | Peptide release rate ([4]; pH 6.0) [%] | Peptide release rate ([4]; pH 6.5) [%] | Peptide release rate ([4]; pH 7.0) [%] | Peptide release rate ([4]; pH 7.4) [%] | Peptide release rate ([5]; 1 h) [%] | Peptide release rate ([5]; 3 h) [%] | Peptide release rate ([5]; 6 h) [%] | Peptide release rate ([5]; 12 h) [%] | Peptide release rate ([5]; 24 h) [%] | Peptide release rate ([5]; 3 day) [%] | Peptide release rate ([5]; 7 day) [%] | Responsive emission enhancement (lambda scan) (EBV-positive C666 cells [7]) | Effect on average tumor size (C666 derived xenografts) | Body weight (C666 derived xenografts) | further results |
| --- | --- | --- | --- | --- | --- | --- | --- | --- | --- | --- | --- | --- | --- | --- | --- | --- | --- | --- |
| CSCC[C@H](NC(=O)[C@H](Cc1ccccc1)NC(=O)[C@H](Cc1ccc(O)cc1)NC(=O)CCCCCN)C(=O)N[C@H](C(=O)N[C@@H](Cc1ccccc1)C(=O)NCC(=O)NCC(=O)N[C@@H](CCCNC(=N)N)C(=O)N[C@H](CCCNC(=N)N)C(=O)N[C@@H](CCCNC(=N)N)C(=O)N[C@@H](CCCCN)C(=O)NCC(=O)NCC(=O)N[C@@H](Cc1ccccc1)C(=O)N[C@@H](Cc1c[nH]c2ccccc12)C(=O)N[C@@H](CC(C)C)C(=O)N[C@@H](Cc1ccc(O)cc1)C(=O)O)C(C)C [P5, -Ahx-YFMVFGGRrRKGGFWLY (SEQ ID NO:5)] (H-[Ahx]YFMVFGGR[dR]RKGGFWLY-OH; C-terminus assumed) | capable of selectively targeting and killing EBV-infected cells | – | – | – | – | – | – | – | – | – | – | – | – | – | – | – | – | Decreased p65 expression, nuclear fraction (p65 [1]): 86%; Decreased p65 expression, nuclear fraction (p65 [2]): 89% |
| CSCC[C@H](NC(=O)[C@H](Cc1ccccc1)NC(=O)[C@H](Cc1ccc(O)cc1)NC(=O)CNC(=O)CNC(=O)[C@H](CCCCN)NC(=O)[C@H](CCCNC(=N)N)NC(=O)[C@@H](CCCNC(=N)N)NC(=O)[C@H](CCCNC(=N)N)NC(=O)CCCCCN)C(=O)N[C@H](C(=O)N[C@@H](Cc1ccccc1)C(=O)NCC(=O)NCC(=O)N[C@@H](Cc1ccccc1)C(=O)N[C@@H](Cc1c[nH]c2ccccc12)C(=O)N[C@@H](CC(C)C)C(=O)N[C@@H](Cc1ccc(O)cc1)C(=O)O)C(C)C [P6, -Ahx-RrRKGGYFMVFGGFWLY (SEQ ID NO:6)] (H-[Ahx]R[dR]RKGGYFMVFGGFWLY-OH; C-terminus assumed) | capable of selectively targeting and killing EBV-infected cells | – | – | – | – | – | – | – | – | – | – | – | – | – | – | – | – | – |
| CSCC[C@H](NC(=O)[C@H](Cc1ccccc1)NC(=O)[C@H](Cc1ccc(O)cc1)NC(=O)CNC(=O)CNC(=O)[C@H](CCCCN)NC(=O)[C@H](CCCNC(=N)N)NC(=O)[C@@H](CCCNC(=N)N)NC(=O)[C@H](CCCNC(=N)N)NC(=O)CNC(=O)CNC(=O)[C@H](Cc1ccc(O)cc1)NC(=O)[C@H](CC(C)C)NC(=O)[C@H](Cc1c[nH]c2ccccc12)NC(=O)[C@H](Cc1ccccc1)NC(=O)CCCCCN)C(=O)N[C@H](C(=O)N[C@@H](Cc1ccccc1)C(=O)O)C(C)C [P7, -Ahx-FWLYGGRrRKGGYFMVF (SEQ ID NO:7)] (H-[Ahx]FWLYGGR[dR]RKGGYFMVF-OH) | capable of selectively targeting and killing EBV-infected cells | – | – | – | – | – | – | – | – | – | – | – | – | – | – | – | – | – |
| NaGdF4:Yb^3+, Er^3+@NaGdF4 [UCNP, reference compound] | – | – | – | – | – | – | – | – | – | – | – | – | – | – | – | – | – | Tumor uptake (ICP-MS biodistribution) (C666 derived xenografts; mouse, in vivo): nearly undetectable in the tumor |
| UCNP-P6: UCNP is NaGdF4:Yb^3+, Er^3+@NaGdF4 and the plurality of polypeptides is Ahx-RrRKGGYFMVFGGFWLY (SEQ ID NO: 6) ([Ahx]R[dR]RKGGYFMVFGGFWLY; also: UCNP conjugate) | – | 83.3 | 34.1 | 32.2 | 21.5 | 4.6 | 0 | 0 | 0 | 0.3 | 0.8 | 1.4 | 1.9 | 5.9 | two-fold | no obvious effect on the tumor size | slight reduction of body weight | Reduced p65 expression level, cytosolic fraction (p65 [1]): 85%; Peptide release rate ([5]; 5 day): 2.9%; Reduced p65 expression level, cytosolic fraction (p65 [2]): 87%; Inhibition of EBNA1 dimerization/oligomerization [6]: eradicate all 90 mg EBNA1 dimers and oligomers |
| UCNP-P7: UCNP is NaGdF4:Yb^3+, Er^3+@NaGdF4 and the plurality of polypeptides is Ahx-FWLYGGRrRKGGYFMVF (SEQ ID NO: 7) ([Ahx]FWLYGGR[dR]RKGGYFMVF; also: UCNP conjugate) | – | 81.2 | 58.5 | 48.2 | 36.1 | 7.4 | 0 | 0 | 0 | 0.2 | 0.7 | 1.0 | 1.6 | 2.6 | two-fold | no obvious effect on the tumor size | slight reduction of body weight | – |
